Laboratory results reported in PMC9612331.

Tests used:
[1] = target: Aleutian mink disease virus (AMDV) capsid protein VP2 (Aleutian mink disease virus (AMDV)); experiment: cryo-EM structure
[2] = target: Human parvovirus 4 (PARV4) capsid protein VP2 (human parvovirus 4 (PARV4)); experiment: cryo-EM structure

## Aleutian mink disease virus (AMDV) capsid protein VP2 (natural protein)
[1]
  stoichiometry N: 60

## Human parvovirus 4 (PARV4) capsid protein VP2 (natural protein)
[2]
  stoichiometry N: 60
